Measurements from PMC7849368 (Genes & Development, 2021).

Target: T1, Esc2, purified, as used in microscale thermophoresis (budding yeast, UniProt Q06340 1-456)
T1 sequence: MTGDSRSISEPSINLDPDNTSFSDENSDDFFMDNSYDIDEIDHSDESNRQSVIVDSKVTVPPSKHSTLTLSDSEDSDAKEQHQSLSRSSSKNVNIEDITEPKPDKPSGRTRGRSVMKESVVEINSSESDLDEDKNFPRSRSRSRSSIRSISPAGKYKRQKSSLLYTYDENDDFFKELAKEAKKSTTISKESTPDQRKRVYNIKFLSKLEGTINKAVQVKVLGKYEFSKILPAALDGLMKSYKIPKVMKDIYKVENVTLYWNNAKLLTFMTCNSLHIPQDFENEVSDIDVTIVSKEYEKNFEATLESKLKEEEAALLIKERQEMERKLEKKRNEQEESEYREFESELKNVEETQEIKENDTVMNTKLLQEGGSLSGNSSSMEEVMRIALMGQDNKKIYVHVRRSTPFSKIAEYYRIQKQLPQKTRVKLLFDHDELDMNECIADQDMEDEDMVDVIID
Assay: MST

B1: Ubc9, purified (enzyme)
chain: MSSLCLQRLQEERKKWRKDHPFGFYAKPVKKADGSMDLQKWEAGIPGKEGTNWAGGVYPITVEYPNEYPSKPPKVKFPAGFYHPNVYPSGTICLSILNEDQDWRPAITLKQIVLGVQDLLDSPNPNSPAQEPAWRSFSRNKAEYDKKVLLQAKQYSK
modifications: RED-tris-NTA dye on the His tag (MST only)
Kd: 372 nM
